How the values were obtained:
[1] = biological target: T1, MqsA (Escherichia coli K-12 MG1655) (UniProt Q46864); assay: EMSA; conditions: EMSA: 0.25 pmol biotin probe, MqsA titration, 6% polyacrylamide gel in TBE, buffer not given, footprinting: 200 ng FAM probe, 30 min, 25 C
T1 sequence: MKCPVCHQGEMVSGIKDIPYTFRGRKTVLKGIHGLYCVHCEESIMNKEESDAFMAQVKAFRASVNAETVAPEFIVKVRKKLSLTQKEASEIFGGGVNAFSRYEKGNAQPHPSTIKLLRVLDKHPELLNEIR

[2] = biological target: T1, MqsA (Escherichia coli K-12 MG1655); assay: DNase I footprinting; conditions: EMSA: 0.25 pmol biotin probe, MqsA titration, 6% polyacrylamide gel in TBE, buffer not given, footprinting: 200 ng FAM probe, 30 min, 25 C

Row | Sequence | binding [1] | binding [2]
1 | GATTGCGTAGCAGGGCCACTGGTATCTGCCGGTATCACCGACATTAACATTGAAGACGACCAGGGCATTCACGTCCGCCTGATAGTTCGTGATGCCGAAGGTCGGATGGTTGGCGGGCATGGAACTTTGAACCGGACGCCGGTGAAGGTTTTAACCGCTATATCCACAGGTCAGGCATCCGCACCGACACCTTCCCCCGCTGACTCCGAATCATTTACCAGCAACATTTCACCTTCCCAAACGCGCTTTATTACCTCATACGCCAG (double strand) [lfgA (yfjY) promoter WT probe] | binds | 
2 | CTGGCGTATGAGGTAATAAAGCGCGTTTGGGAAGGTGAAATGTTGCTGGTAAATGATTCGGAGTCAGCGGGGGAAGGTGTCGGTGCGGATGCCTGACCTGTGGATATAGCGGTTAAAACCTTCACCGGCGTCCGGTTCAAAGTTCCATGCCCGCCAACCATCCGACCTTCGGCATCACGAACTATCAGGCGGACGTGAATGCCCTGGTTTGTGTCAATGTTAATGTCGGTGATACCGGCAGATACCAGTGGCCCTGCTACGCAATC (double strand) [lfgA promoter mutant probe 2 (MP2)] | no binding | 
3 | CTGGCGTATGAGGTAATAAAGCGCGTTTGGGAAGGTGAAATGTTGCTGGTAAATGATTCGGAGTCAGCGGGGGAAGGTGTCGGTGCGGATGCCTGACCTGTGGATATAGCGGTTAAAACCTTCTTTTGCGTCATTATCAAAGTTCCATGCCCGCCAACCATCCGACCTTCGGCATCACGAACTATCAGGCGGACGTGAATGCCCTGGTCGTCTTCAATGTTAATGTCGGTGATACCGGCAGATACCAGTGGCCCTGCTACGCAATC (double strand) [lfgA promoter mutant probe 1 (MP)] | binds | 
4 | GATTGCGTAGCAGGGCCACTGGTATCTGCCGGTATCACCGACATTAACATTGAAGACGACCAGGGCATTCACGTCCGCCTGATAGTTCGTGATGCCGAAGGTCGGATGGTTGGCGGGCATGGAACTTTGAACCGGACGCCGGTGAAGGTTTTAACCGCTATATCCACAGGTCAGGCATCCGCACCGACACCTTCCCCCGCTGACTCCGAATCATTTACCAGCAACATTTCACCTTCCCAAACGCGCTTTATTACCTCATACGCCAG (double strand) [FAM-lfgA (yfjY) promoter footprint probe] |  | binds

Reference: paper PMC10846083
